{"source": "patent US20100317583A1", "about": "“TREATMENT OF MELANOMA WITH ALPHA THYMOSIN PEPTIDES IN COMBINATION WITH AN ANTINEOPLASTIC HEAT SHOCK APOPTOSIS ACTIVATOR (HSAA)” (SciClone Pharmaceuticals, Inc., priority 2007, published 2010)", "format": "in vivo", "details": "for Body weight (Mean ± SD) / PI (BW), inhibition of body weight vs vehicle: low-dose arms: TA-1 6 mg/kg s.c. daily, Pac 10 + Ele 10 mg/kg co-i.v. Days 1, 7, 13", "procedure": "In this study, the anti-tumor effect of the combined treatment of thymosin alpha-1 (TA-1), Paclitaxel (Pac) and Elesclomol (Ele) was evaluated in C57BL/6 mice bearing B16 melanoma cells. The toxic effects of the dosing regimens were also monitored. A total of 60 mice were implanted subcutaneously with murine B16 cells, followed by treatment with TA-1 or Pac/Ele alone or in combination for 14 consecutive days. TA-1 was given daily via s.c., while Pac and Ele were co-i.v. administered on Day 1, 7 and 13. In total, 6 groups were used: Group 1: vehicle; Group 2: TA-1 6 mg/kg; Group 3: Pac 10 mg/kg+Ele 10 mg/kg; Group 4: Pac 30 mg/kg+Ele 30 mg/kg; Group 5: TA-1 6 mg/kg+Pac 10 mg/kg+Ele 10 mg/kg; and Group 6: TA-1 6 mg/kg+Pac 30 mg/kg+Ele 30 mg/kg. Tumor volume and body weight were measured every three days, and tumor weights were measured on Day 17 at the end of the study.\nOn Day 1, the animals were randomly assigned into different weight-matched groups, and dosing was started using the regimen according to Table 2. Briefly, TA-1 was administered once daily via subcutaneous (s.c.) injection for 14 consecutive days at a site different from that of tumor cell implantation, while Pac and Ele was administered on Days 1, 7, and 13 via an intravenous (i.v.) injection.\nFrom Day 1 to Day 15, mortality and moribundity were checked twice daily, the body weights were recorded once every 3 days, and tumors were measured using a caliper once every 3 days. At the end of the study (Day 17), the animals were euthanized by CO2 asphyxiation, and the tumors were excised and weighed.\nToxicity of all treatment regimens was evaluated with the body weights of the study animals along with the drug-induced animal deaths. The inhibition of body weight was calculated using Excel according to the equation below:\nPIBW(%)=100×(BW vehicle−BW drug treated)/BW vehicle\nInter-group comparison was performed in terms of tumor volume, tumor weight and body weight, using a student's t test. P values of less than 0.05 were considered to be statistically significant.", "note": "Where two headings read alike, the source gives them in different places. No end group written: not given here."}
{"substance": "thymosin alpha 1 (SDAAVDTSSEITTKDLKEKKEVVEEAEN; ends and bridges not checked; UniProt P06454 2-29, looked up) [TA-1, 28 amino acid peptide with a molecular weight of 3108; immunomodulator]", "values": [{"measurement": "Body weights", "setting": "Day 0, animal F1", "result": 21.5, "unit": "g"}, {"measurement": "Body weights", "setting": "Day 0, animal F2", "result": 20.8, "unit": "g"}, {"measurement": "Body weights", "setting": "Day 0, animal F3", "result": 19.3, "unit": "g"}, {"measurement": "Body weights", "setting": "Day 0, animal F4", "result": 20.0, "unit": "g"}, {"measurement": "Body weights", "setting": "Day 0, animal F5", "result": 19.9, "unit": "g"}, {"measurement": "Body weights", "setting": "Day 0, animal M1", "result": 21.8, "unit": "g"}, {"measurement": "Body weights", "setting": "Day 0, animal M2", "result": 21.5, "unit": "g"}, {"measurement": "Body weights", "setting": "Day 0, animal M3", "result": 22.9, "unit": "g"}, {"measurement": "Body weights", "setting": "Day 0, animal M4", "result": 20.7, "unit": "g"}, {"measurement": "Body weights", "setting": "Day 0, animal M5", "result": 21.4, "unit": "g"}, {"measurement": "Body weights", "setting": "Day 3, animal F2", "result": 19.0, "unit": "g"}, {"measurement": "Body weights", "setting": "Day 3, animal F3", "result": 20.2, "unit": "g"}, {"measurement": "Body weights", "setting": "Day 3, animal F4", "result": 19.8, "unit": "g"}, {"measurement": "Body weights", "setting": "Day 3, animal F5", "result": 19.1, "unit": "g"}, {"measurement": "Body weights", "setting": "Day 3, animal M1", "result": 21.1, "unit": "g"}, {"measurement": "Body weights", "setting": "Day 3, animal M2", "result": 17.8, "unit": "g"}, {"measurement": "Body weights", "setting": "Day 3, animal M3", "result": 19.7, "unit": "g"}, {"measurement": "Body weights", "setting": "Day 3, animal M4", "result": 20.4, "unit": "g"}, {"measurement": "Body weights", "setting": "Day 3, animal M5", "result": 19.8, "unit": "g"}, {"measurement": "Body weight (Mean ± SD)", "setting": "Day 3", "result": "19.44 ± 1.12", "unit": "g"}, {"measurement": "PI (BW), inhibition of body weight vs vehicle", "setting": "Day 3", "result": 1.17, "unit": "%"}, {"measurement": "Body weights", "setting": "Day 6, animal F2", "result": 21.2, "unit": "g"}, {"measurement": "Body weights", "setting": "Day 6, animal F3", "result": 21.2, "unit": "g"}, {"measurement": "Body weights", "setting": "Day 6, animal F4", "result": 20.7, "unit": "g"}, {"measurement": "Body weights", "setting": "Day 6, animal F5", "result": 21.5, "unit": "g"}, {"measurement": "Body weights", "setting": "Day 6, animal M1", "result": 22.8, "unit": "g"}, {"measurement": "Body weights", "setting": "Day 6, animal M2", "result": 22.3, "unit": "g"}, {"measurement": "Body weights", "setting": "Day 6, animal M3", "result": 22.7, "unit": "g"}, {"measurement": "Body weights", "setting": "Day 6, animal M4", "result": 21.1, "unit": "g"}, {"measurement": "Body weights", "setting": "Day 6, animal M5", "result": 22.2, "unit": "g"}, {"measurement": "Body weight (Mean ± SD)", "setting": "Day 6", "result": "21.63 ± 0.81", "unit": "g"}, {"measurement": "PI (BW), inhibition of body weight vs vehicle", "setting": "Day 6", "result": "−0.42", "unit": "%"}, {"measurement": "Body weights", "setting": "Day 9, animal F1", "result": 20.4, "unit": "g"}, {"measurement": "Body weights", "setting": "Day 9, animal F2", "result": 20.7, "unit": "g"}, {"measurement": "Body weights", "setting": "Day 9, animal F3", "result": 20.4, "unit": "g"}, {"measurement": "Body weights", "setting": "Day 9, animal F4", "result": 20.2, "unit": "g"}, {"measurement": "Body weights", "setting": "Day 9, animal F5", "result": 20.0, "unit": "g"}, {"measurement": "Body weights", "setting": "Day 9, animal M1", "result": 22.5, "unit": "g"}, {"measurement": "Body weights", "setting": "Day 9, animal M2", "result": 21.2, "unit": "g"}, {"measurement": "Body weights", "setting": "Day 9, animal M3", "result": 22.5, "unit": "g"}, {"measurement": "Body weights", "setting": "Day 9, animal M4", "result": 20.9, "unit": "g"}, {"measurement": "Body weights", "setting": "Day 9, animal M5", "result": 21.7, "unit": "g"}, {"measurement": "Body weight (Mean ± SD)", "setting": "Day 9", "result": "21.05 ± 0.91", "unit": "g"}, {"measurement": "PI (BW), inhibition of body weight vs vehicle", "setting": "Day 9", "result": 1.13, "unit": "%"}, {"measurement": "Body weights", "setting": "Day 12, animal F1", "result": 21.5, "unit": "g"}, {"measurement": "Body weights", "setting": "Day 12, animal F2", "result": 21.3, "unit": "g"}, {"measurement": "Body weights", "setting": "Day 12, animal F3", "result": 20.2, "unit": "g"}, {"measurement": "Body weights", "setting": "Day 12, animal F4", "result": 20.1, "unit": "g"}, {"measurement": "Body weights", "setting": "Day 12, animal F5", "result": 20.1, "unit": "g"}, {"measurement": "Body weights", "setting": "Day 12, animal M1", "result": 22.4, "unit": "g"}, {"measurement": "Body weights", "setting": "Day 12, animal M2", "result": 21.5, "unit": "g"}, {"measurement": "Body weights", "setting": "Day 12, animal M3", "result": 22.4, "unit": "g"}, {"measurement": "Body weights", "setting": "Day 12, animal M4", "result": 21.0, "unit": "g"}, {"measurement": "Body weights", "setting": "Day 12, animal M5", "result": 22.2, "unit": "g"}, {"measurement": "Body weight (Mean ± SD)", "setting": "Day 12", "result": "21.27 ± 0.91", "unit": "g"}, {"measurement": "PI (BW), inhibition of body weight vs vehicle", "setting": "Day 12", "result": 2.03, "unit": "%"}, {"measurement": "Body weights", "setting": "Day 15, animal F1", "result": 21.7, "unit": "g"}, {"measurement": "Body weights", "setting": "Day 15, animal F2", "result": 21.5, "unit": "g"}, {"measurement": "Body weights", "setting": "Day 15, animal F3", "result": 21.2, "unit": "g"}, {"measurement": "Body weights", "setting": "Day 15, animal F4", "result": 21.2, "unit": "g"}, {"measurement": "Body weights", "setting": "Day 15, animal F5", "result": 21.1, "unit": "g"}, {"measurement": "Body weights", "setting": "Day 15, animal M1", "result": 22.5, "unit": "g"}, {"measurement": "Body weights", "setting": "Day 15, animal M2", "result": 22.5, "unit": "g"}, {"measurement": "Body weights", "setting": "Day 15, animal M3", "result": 23.4, "unit": "g"}, {"measurement": "Body weights", "setting": "Day 15, animal M4", "result": 22.0, "unit": "g"}, {"measurement": "Body weights", "setting": "Day 15, animal M5", "result": 23.6, "unit": "g"}, {"measurement": "Body weight (Mean ± SD)", "setting": "Day 15", "result": "22.07 ± 0.91", "unit": "g"}, {"measurement": "PI (BW), inhibition of body weight vs vehicle", "setting": "Day 15", "result": 1.25, "unit": "%"}]}
